The source of these data is paper PMC9020658.

This series addresses UAF (Rrn5-Rrn9-Rrn10-Uaf30-H3-H4);TBP (TATA-box-binding protein) ((budding yeast);(budding yeast)) (UniProt Q02983+P53437+P38204+Q08747+P61830+P02309+P13393). The series can be described thus: cryo-EM 2.8 A. To be noted: 30 mM Hepes-NaOH pH 7.5, 30 mM sodium citrate pH 6.0, 250 mM KCl, 2 mM DTT; filter binding 1 h at 4 C; footprinting on ice, then 2.5 mM MgCl2, 0.5 mM CaCl2 ….

As for “GAAAAAAAAAATATACGCTAAGATTTTTGGAGAATAGCTTAAATTGAAGTTTTTCTCGGCGAGAAATACGTAGTTAAGGCAGAGCGACAGAGAGGGCAAAAGAAAATAAAAGTAAGATTTTAGTTTGTAATGGGAGGGGGGGTTTAGTCAT (double strand) [35S rRNA promoter -190/-40 (cryo-EM DNA)]”, the binding entry was “binds”.
